According to article PMC8944910:
Where two headings read alike, the source gives them in different places.

Tests used:
[1] = molecular target: His-tagged eukaryotic translation initiation factor 1 (His–eIF1), labelled with NT650 (UniProt P32911); assay: temperature-related intensity change assay
[2] = molecular target: His-tagged eukaryotic translation initiation factor 1 (His–eIF1), labelled with NT650 (UniProt P32911); assay: temperature-related intensity change assay; remark: listed apart in the source

UniProt P32911, sequence (P32911 whole entry): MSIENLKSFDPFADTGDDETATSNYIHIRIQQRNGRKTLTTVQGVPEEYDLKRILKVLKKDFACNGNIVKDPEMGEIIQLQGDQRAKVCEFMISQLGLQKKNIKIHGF

Substance | Kd [1] [nM] | Kd [2] [nM]
40S ribosomal subunit from wild-type control (BY4741 / BCD1) yeast cells (from UniProt P05750 1-240) (complex) | 23 | –
hypo-2′-O-methylated 40S ribosomal subunit from bcd1-D72A yeast cells (from UniProt P05750 1-240) (complex) | 64 | 63
